Assay results published in publication PMC10522976.

Target: Cynomolgus MSLN (cynomolgus macaque)

B1: VH 3C9 (human antibody heavy chain variable domain) (VHH)
VHH: DVQLVESGGGVVQPGRSLRLSCAASGFTFSSYAMHWVRQAPGKGLEWVSSISGNSLYKYYADSVKGRFTISRDDSTNTLYLQMNSLRAEDTATYYCTRHWAVGNWGQGTLVTVSS
  Kd: > 100 nM
